Results published in PMC2837607, “Orthophosphate binding at the dimer interface of Corynebacterium callunae starch phosphorylase: mutational analysis of its role for activity and stability of the enzyme” (BMC Biochemistry, 2010).
Values joined by “and” are separate entries in the source; they are usually repeats but may differ in a detail not shown here. Equal values may be shown once. Blank lines part the entries; values can stand above or below the compound they belong to.

What was measured:
[1] = target: T1, Corynebacterium callunae starch phosphorylase (CcGlgP) (Corynebacterium callunae, UniProt Q8KQ56); conditions: 50 mM triethanolamine, pH 7.0; dimer-interface P- and CAP-sites, not the catalytic site; stabilisation against subunit dissociation
[2] = target: T2, Corynebacterium callunae starch phosphorylase (CcGlgP) (Corynebacterium callunae, UniProt Q8KQ56, K32A); test: colorimetric PLP quantitation of the isolated enzyme; format: binding; conditions: covalent (Schiff base with active-site Lys); as isolated
T2 construct: full-length, N-terminal RGSHHHHHHGSA tag kept, from pQE 30-GlgP in E. coli JM109; homodimer (small tetramer fraction caused by tag); PLP enzyme
From the text: (§1) colorimetric PLP quantitation of the isolated enzyme on Corynebacterium callunae starch phosphorylase (CcGlgP)

[3] = target: T3, Corynebacterium callunae starch phosphorylase (CcGlgP) (Corynebacterium callunae, UniProt Q8KQ56, R142A); test: as above; format: binding; conditions: covalent (Schiff base with active-site Lys); as isolated
T3 construct: full-length, N-terminal RGSHHHHHHGSA tag kept, from pQE 30-GlgP in E. coli JM109; homodimer (small tetramer fraction caused by tag); PLP enzyme
From the text: as §1

[4] = target: T4, Corynebacterium callunae starch phosphorylase (CcGlgP) (Corynebacterium callunae, UniProt Q8KQ56, S175A); test: as above; format: binding; conditions: covalent (Schiff base with active-site Lys); as isolated
T4 construct: full-length, N-terminal RGSHHHHHHGSA tag kept, from pQE 30-GlgP in E. coli JM109; homodimer (small tetramer fraction caused by tag); PLP enzyme
From the text: as §1

[5] = target: T5, Corynebacterium callunae starch phosphorylase (CcGlgP) (Corynebacterium callunae, UniProt Q8KQ56, T29A); test: as above; format: binding; conditions: covalent (Schiff base with active-site Lys); as isolated
T5 construct: full-length, N-terminal RGSHHHHHHGSA tag kept, from pQE 30-GlgP in E. coli JM109; homodimer (small tetramer fraction caused by tag); PLP enzyme
From the text: as §1

[6] = target: T1, Corynebacterium callunae starch phosphorylase (CcGlgP); test: as above; format: binding; design: full-length, N-terminal RGSHHHHHHGSA tag kept, from pQE 30-GlgP in E. coli JM109; homodimer (small tetramer fraction caused by tag); PLP enzyme; conditions: covalent (Schiff base with active-site Lys); as isolated
From the text: as §1

[7] = target: T1, Corynebacterium callunae starch phosphorylase (CcGlgP); test: initial rate of glucan synthesis, Pi release; format: biochemical; design: full-length, N-terminal RGSHHHHHHGSA tag kept, from pQE 30-GlgP in E. coli JM109; homodimer (small tetramer fraction caused by tag); PLP enzyme; conditions: 50 mM G1P, 20 g/l starch, pH 7.0, 30 °C; apparent activation through dimer stabilisation, not allosteric
[8] = target: Corynebacterium callunae starch phosphorylase K31A (Corynebacterium callunae)
[9] = target: Corynebacterium callunae starch phosphorylase R141A (Corynebacterium callunae)
[10] = target: Corynebacterium callunae starch phosphorylase R141A (Corynebacterium callunae); test: SEC; R141A as isolated, prior to imidazole, 0.4 mg/ml; HiLoad 16/60 Superdex 200 prep grade, 50 mM potassium phosphate buffer pH 7.0, 0.15 M NaCl, 1 ml/min; calibrated with Bio-Rad Gel Filtration Standard
[11] = target: Corynebacterium callunae starch phosphorylase S174A (Corynebacterium callunae)
[12] = target: Corynebacterium callunae starch phosphorylase S174A (Corynebacterium callunae); remark: listed apart in the source
[13] = target: Corynebacterium callunae starch phosphorylase T28A (Corynebacterium callunae)
[14] = target: Corynebacterium callunae starch phosphorylase, wild-type (Corynebacterium callunae)
[15] = target: Corynebacterium callunae starch phosphorylase, wild-type (Corynebacterium callunae); remark: listed apart in the source
[16] = target: Corynebacterium callunae starch phosphorylase, wild-type (Corynebacterium callunae); remark: listed apart in the source

T1 sequence (Q8KQ56 entry or part of it): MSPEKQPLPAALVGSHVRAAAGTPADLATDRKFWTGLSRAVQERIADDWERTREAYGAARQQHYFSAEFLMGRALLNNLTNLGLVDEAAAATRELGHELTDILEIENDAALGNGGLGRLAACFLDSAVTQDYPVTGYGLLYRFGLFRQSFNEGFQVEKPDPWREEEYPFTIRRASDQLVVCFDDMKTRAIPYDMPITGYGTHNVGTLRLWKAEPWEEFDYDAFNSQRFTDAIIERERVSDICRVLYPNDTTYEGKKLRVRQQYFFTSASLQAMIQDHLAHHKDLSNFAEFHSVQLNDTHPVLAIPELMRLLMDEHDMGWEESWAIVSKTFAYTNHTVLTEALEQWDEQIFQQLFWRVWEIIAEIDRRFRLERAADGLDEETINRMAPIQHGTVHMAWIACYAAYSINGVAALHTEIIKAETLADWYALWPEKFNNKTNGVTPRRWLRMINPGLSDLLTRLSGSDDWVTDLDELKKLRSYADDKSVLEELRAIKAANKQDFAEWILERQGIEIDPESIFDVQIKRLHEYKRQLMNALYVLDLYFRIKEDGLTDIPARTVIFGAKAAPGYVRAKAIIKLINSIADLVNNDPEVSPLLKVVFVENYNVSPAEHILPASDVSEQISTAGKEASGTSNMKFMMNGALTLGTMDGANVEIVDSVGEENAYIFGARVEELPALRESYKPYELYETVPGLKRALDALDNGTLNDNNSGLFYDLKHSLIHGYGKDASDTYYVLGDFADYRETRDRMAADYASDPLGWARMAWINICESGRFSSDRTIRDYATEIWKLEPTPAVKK
T2 sequence (Q8KQ56 entry or part of it K32A): as the sequence (Q8KQ56 entry or part of it) above, with K32A counted along it
T3 sequence (Q8KQ56 entry or part of it R142A): as the sequence (Q8KQ56 entry or part of it) above, with R142A counted along it
T5 sequence (Q8KQ56 entry or part of it T29A): as the sequence (Q8KQ56 entry or part of it) above, with T29A counted along it
T4 sequence (Q8KQ56 entry or part of it S175A): as the sequence (Q8KQ56 entry or part of it) above, with S175A counted along it

- inactivation at 45°C / 10.0 mM Pi [1]: 280 min
Compound: O=P(O)(O)O [orthophosphate]

- PLP / [μM/μM protein] [2]: 0.6 μM/μM protein
- PLP / [μM/μM protein] [3]: 0.7 μM/μM protein
- PLP / [μM/μM protein] [4]: 0.7 μM/μM protein
- PLP / [μM/μM protein] [5]: 0.6 μM/μM protein
- PLP / [μM/μM protein] [6]: 0.7 μM/μM protein
Compound: Cc1ncc(COP(=O)(O)O)c(C=O)c1O [pyridoxal 5'-phosphate]

Compound: O=S(=O)(O)O [sulphate]
- maximum stimulation of Vs at around 10 mM sulphate [7]: ~ 3 fold

- half-life time (t1/2) of enzyme activity at 45°C, pH 7.0; no Pi, 10.0 mM Pi, 100 mM Pi (5.3, 1.7 × 10^2, 3.5 × 10^3 min) [8]: 3500 min
- half-life time (t1/2) of enzyme activity in 0.4 M imidazole at 30°C; no Pi, 5.0 mM Pi (10, 25 min) [8]: 25 min
Compound: Corynebacterium callunae starch phosphorylase K31A (enzyme)

- half-life time (t1/2) of enzyme activity at 45°C, pH 7.0; no Pi, 10.0 mM Pi, 100 mM Pi (2.9, 7.5, 1.4 × 10^3 min) [9]: 1400 min
- half-life time (t1/2) of enzyme activity in 0.4 M imidazole at 30°C; no Pi, 5.0 mM Pi (6.4, 27 min) [9]: 27 min
- stoichiometry N [10]: 2 and 4
Compound: Corynebacterium callunae starch phosphorylase R141A (enzyme)

- half-life time (t1/2) of enzyme activity at 45°C, pH 7.0; no Pi, 10.0 mM Pi, 100 mM Pi (2.8, 33, 9.9 × 10^2 min) [11]: 990 min
- half-life time (t1/2) of enzyme activity in 0.4 M imidazole at 30°C; no Pi, 5.0 mM Pi (14, 58 min) [11]: 58 min
- enhancement of Vs by 10 mM sulphate, 50 mM G1P; protein 2.5 nM (~5-fold) and 50 nM (1.7-fold) [12]: 5 fold
Compound: Corynebacterium callunae starch phosphorylase S174A (enzyme)

- half-life time (t1/2) of enzyme activity at 45°C, pH 7.0; no Pi, 10.0 mM Pi, 100 mM Pi (0.8, 2.2, 3.3 × 10^2 min) [13]: 330 min
- half-life time (t1/2) of enzyme activity in 0.4 M imidazole at 30°C; no Pi, 5.0 mM Pi (1.9, 5.6 min) [13]: 5.6 min
Compound: Corynebacterium callunae starch phosphorylase T28A (enzyme)

- half-life time (t1/2) of enzyme activity at 45°C, pH 7.0; no Pi, 10.0 mM Pi, 100 mM Pi (2.6, 2.8 × 10^2, 3.5 × 10^3 min) [14]: 3500 min
- half-life time (t1/2) of enzyme activity in 0.4 M imidazole at 30°C; no Pi, 5.0 mM Pi (22, 160 min) [14]: 160 min
- stimulation of the initial rate of glucan synthesis (Vs) by sulphate (5.0 - 40 mM (NH4)2SO4), 50 mM G1P, relative to the control lacking sulphate; maximum at around 10 mM sulphate [15]: 3 fold
- apparent activation of Vs by 10 mM sulphate at 2.5 nM protein, 50 mM G1P [16]: 2.4 fold
Compound: Corynebacterium callunae starch phosphorylase, wild-type (enzyme)
